Values of other authors in article PMC5648805.

What was measured:
[1] = molecular target: Calmodulin (Homo sapiens) (UniProt P0DP23); test: ITC
[2] = molecular target: Orai1 (Homo sapiens) (UniProt Q96D31)
Chain of UniProt Q96D31 (Q96D31 whole entry): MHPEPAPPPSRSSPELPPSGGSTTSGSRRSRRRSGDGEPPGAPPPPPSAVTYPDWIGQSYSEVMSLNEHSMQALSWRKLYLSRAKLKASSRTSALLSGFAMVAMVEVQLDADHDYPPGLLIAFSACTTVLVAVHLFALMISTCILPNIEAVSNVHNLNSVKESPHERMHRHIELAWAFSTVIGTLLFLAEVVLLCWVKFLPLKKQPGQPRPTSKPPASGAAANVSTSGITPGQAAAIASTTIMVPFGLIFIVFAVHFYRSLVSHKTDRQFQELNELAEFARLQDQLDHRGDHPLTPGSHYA

| Substance | Kd [1] | Kd [2] |
| --- | --- | --- |
| STIM1 polybasic peptide polybasic region (from UniProt Q13586) | 1 µM | – |
| STIM1 SOAR (from UniProt Q13586) | – | 200 µM |
